Tests used:
[1] = molecular target: MBP-5-HT3A-ICD fusion protein (cytoplasmic domain of the mouse 5-HT3A receptor fused to the C-terminus of maltose binding protein) (mouse); test: SEC; Superdex 200 10/300 GL, 20 mM HEPES, 150 mM NaCl, 0.02% NaN3, pH 7.4; weight from calibration with standard proteins
[2] = molecular target: MBP-5-HT3A-ICD fusion protein (cytoplasmic domain of the mouse 5-HT3A receptor fused to the C-terminus of maltose binding protein) (mouse); test: SEC-MALS; Superdex 200 HR 10/300 GL, 20 mM HEPES, 150 mM NaCl, 5 mM maltose, 0.01% NaN3, pH 7.4, ambient temperature, 0.1-1.0 mg protein loaded
[3] = molecular target: MBP-5-HT3A-ICD fusion protein (cytoplasmic domain of the mouse 5-HT3A receptor fused to the C-terminus of maltose binding protein) (mouse); test: cross-linking; glutaraldehyde by vapor diffusion at 30 °C, 0.5 μg purified protein in buffer B; resolved by SDS-PAGE with Western blot (anti-MBP) or denaturing capillary gel electrophoresis

Measured: stoichiometry N

MBP-5-HT3A-ICD fusion protein (cytoplasmic domain of the mouse 5-HT3A receptor fused to the C-terminus of maltose binding protein) (domain or fragment)
5: [1] | [2] | [3]

From article PMC4820698
